Columns and labels:
Type in all cases: physicochemical
[1] = Singlet oxygen quantum yield of the phthalocyanine; settings: measured in dimethylsulfoxide
Description: It has particularly outstanding photo-physical properties. […] Singlet oxygen quantum yield of this phthalocyanine, measured in dimethylsulfoxide, mounts up to ϕΔ=0.72. The presence of the tert-butyl groups not only minimizes the formation of molecular aggregates, but also increases the solubility of the compound in organic solvents.

[2] = Dynamic light scattering size distribution of TT1-ELP and TT1-ELP^PhOx
Experimental: Dynamic light scattering: The DLS measurements of TT1-ELP (at 20° C. and 37° C.) and TT1-ELP^PhOx (at 37° C.) are performed on a Nano ZS 90 instrument (HeNe laser 632.8 nm, Malvern) at a 90° angle at a constant position in the cuvette (constant scattering volume at 30 μM concentration in 1×PBS, pH 7.4). The values of Z-average hydrodynamic diameter (DH) and polydispersity index (PDI) are obtained from the 2nd order cumulant fit using a CONTIN-like algorithm.
In order to mimic the self-assembly and photooxidation-triggered disassembly profile of TT1-ELP, dynamic light scattering (DLS) measurements are performed in physiological conditions (PBS pH 7.4 at 37° C.) on TT1-ELP and TT1-ELP^PhOx.
Due to the stacking tendency of TT1 upon direct dissolution of TT1-ELP in PBS at ambient temperature, 60 nm micelles with narrow size distribution (PDI 0.2) are observed in DLS measurement conducted at 165° angle via 657 nm laser (FIG. 5-A)).

[3] = Turbidity assay, onset transition temperature (Tt) of ELP and TT1 bioconjugates in PBS; settings: for Tt in PBS: PBS pH 7.4, onset transition temperature
Experimental: UV-Vis spectroscopy: The transition temperatures (Tt) are determined by following the turbidity at 600 or 500 nm absorption versus temperature on Agilent Cary 100 UV-Vis spectrophotometer equipped with a multicell thermo-electric temperature controller. Turbidity is measured over a temperature range from 10 to 60° C. at 1° C. min^−1 of a scan rate before and after the conjugation reaction at three concentrations of phthalocyanine (10, 20 and 30 μM) in phosphate buffer (PBS, pH 7.4).
The thermo-responsive character of ELP, before and after TT1 conjugation, is measured by turbidity assays in phosphate buffer (PBS, pH 7.4) following the absorbance at 600 and 500 nm, respectively, over a temperature range from 10 to 60° C.
The same analysis is carried out for TT1-ELP(O) (obtained by chemical oxidation of methionyl groups) and TT1-ELP^PhOx (obtained by oxidation triggered by photo-irradiation of methionyl groups).

[4] = direct dissolution in PBS, ambient temperature, 165° angle, 657 nm laser

Molecule | Singlet oxygen quantum yield ϕΔ [1] | particle size (hydrodynamic diameter) ([2]; above Tt, 37° C., PBS pH 7.4) [μm] | PDI [2, 4] | micelle size [2, 4] [nm] | aggregation state by DLS ([2]; temperature dropped back to 20° C., PBS pH 7.4) | Tt in PBS ([3]; 10 μM) [°C] | Tt in PBS ([3]; 20 μM) [°C] | solubility ([3]; 10, 20 and 30 μM in PBS pH 7.4 at 10° C.) | drop of Tt after conjugation of TT1 ([3]; versus ELP, PBS pH 7.4)
9(10),16(17),23(24)-Tri-tert-butyl-2-carboxy-5,28:14,19-diimino-7,12:21,26-dinitrilotetrabenzo[c,h,m,r][1,6,11,16]tetraazacycloeicosinato-(2)-N^29,N^30,N^31,N^32zinc(II) [TT1] | 0.72 | – | – | – | – | – | – | – | –
TT1-ELP: phthalocyanine TT1 coupled by CuAAC triazole linker to the N-terminus of ELP (SEQ ID No: 11) (conjugate, N-terminal phthalocyanine TT1 via triazole; Elastin-like polypeptide) MWVPGVGVPGMGVPGVGVPGVGVPGVGVPGMGVPGVGVPGVGVPGVGVPGMGVPGVGVPGVGVPGVGVPGMGVPGVGVPGVGVPGVGVPGMGVPGVGVPGVGVPGVGVPGMGVPGVGVPGVGVPGVGVPGMGVPGVGVPGVGVPGVGVPGMGVPGVGVPGVGVPGVGVPGMGVPGVGVPGVGVPGVGVPGMGVPGVGVPGVG | – | 1.5 | 0.2 | 60 | disassembly of these aggregates | 29 | 28 | fully soluble | approximately 10 °C

Source: patent US20250302962A1, “BIOCONJUGATE COMPRISING A PHOTOSENSITIZER UNIT, METHOD FOR ITS PREPARATION AND USE THEREOF” (UNIVERSITE DE BORDEAUX, priority 2021, published 2025)
